Test results as given in paper PMC4361775.
Blank lines part the entries; values can stand above or below the substance they belong to.

What was measured:
[1] = target: type II human collagen (human); test: SPR
[2] = target: coch_vWFA2_F527C protein, monomeric form (recombinant vWFA2 domain of human cochlin carrying the p.F527C mutation) (human); test: non-reducing SDS-PAGE
type II collagen = type II collagen (UniProt P02458); test: SPR; conditions: cited from earlier work
Chain of type II collagen (P02458 182-1241): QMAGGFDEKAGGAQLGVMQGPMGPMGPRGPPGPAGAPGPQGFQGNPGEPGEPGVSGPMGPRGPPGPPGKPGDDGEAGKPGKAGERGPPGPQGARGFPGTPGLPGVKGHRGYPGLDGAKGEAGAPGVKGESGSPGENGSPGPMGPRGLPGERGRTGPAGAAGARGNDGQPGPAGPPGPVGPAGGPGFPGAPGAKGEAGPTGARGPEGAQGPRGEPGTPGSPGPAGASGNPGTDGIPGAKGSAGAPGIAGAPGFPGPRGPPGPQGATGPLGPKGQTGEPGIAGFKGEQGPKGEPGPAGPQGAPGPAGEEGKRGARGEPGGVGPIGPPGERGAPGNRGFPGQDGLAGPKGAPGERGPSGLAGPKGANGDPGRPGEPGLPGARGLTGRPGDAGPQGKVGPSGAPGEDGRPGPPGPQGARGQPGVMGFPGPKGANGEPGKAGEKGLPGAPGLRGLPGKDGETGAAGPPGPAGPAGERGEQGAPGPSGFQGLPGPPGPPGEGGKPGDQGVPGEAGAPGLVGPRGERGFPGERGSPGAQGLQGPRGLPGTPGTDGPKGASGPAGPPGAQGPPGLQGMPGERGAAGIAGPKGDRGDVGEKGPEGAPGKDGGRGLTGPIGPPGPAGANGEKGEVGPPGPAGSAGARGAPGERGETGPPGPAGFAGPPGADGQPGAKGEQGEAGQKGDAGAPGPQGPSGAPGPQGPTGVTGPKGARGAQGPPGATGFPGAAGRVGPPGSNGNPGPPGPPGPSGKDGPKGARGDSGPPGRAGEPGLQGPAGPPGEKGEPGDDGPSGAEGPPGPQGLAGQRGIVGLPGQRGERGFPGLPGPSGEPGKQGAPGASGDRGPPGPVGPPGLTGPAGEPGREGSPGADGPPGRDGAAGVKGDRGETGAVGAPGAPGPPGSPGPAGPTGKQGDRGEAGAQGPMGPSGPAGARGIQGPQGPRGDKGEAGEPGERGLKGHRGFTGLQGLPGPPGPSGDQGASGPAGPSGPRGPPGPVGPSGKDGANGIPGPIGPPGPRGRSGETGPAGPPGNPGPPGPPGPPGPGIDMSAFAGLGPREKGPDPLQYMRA

Kd of the higher-affinity species (heterogeneous analyte, two species 1:1) [1]: 950 nM
Substance: coch_vWFA2_F527C protein, dimeric form (covalent disulfide-bonded dimer) (domain or fragment)

stoichiometry N [2]: 2
Substance: coch_vWFA2_F527C protein, monomeric form (recombinant vWFA2 domain of human cochlin carrying the p.F527C mutation) (domain or fragment)

Substance: cochlin vWFA2 (from UniProt O43405)
Kd (type II collagen): 94.5 nM
